This is an account of results in PMC8371249.

The target of test [1] is apo-SufR (clusterless Mtb SufR, Rv1460) (Mycobacterium tuberculosis). The experiment in a line: SEC.
For test [2], the target named is holo-SufR (Mtb SufR, Rv1460, with its 4Fe–4S cluster) (Mycobacterium tuberculosis). Nature of the test: SEC.

The substance “apo-SufR (clusterless Mtb SufR, Rv1460) (natural protein)” registered a stoichiometry N in test [1] of 2. In test [2], “holo-SufR (Mtb SufR, Rv1460, with its 4Fe–4S cluster) (natural protein)” yielded a stoichiometry N of 2.
